Here are results for 1 molecule from patent US20140271602, “NUCLEOTIDE-SPECIFIC RECOGNITION SEQUENCES FOR DESIGNER TAL EFFECTORS” (THE BROAD INSTITUTE INC., published 2014).

Residue numbers refer to the chain shown, from its start.

Series [1] has as its target T1, TALE1-NN (CACNA1C site 1 activator) (Xanthomonas (engineered), UniProt P14727 SEQ:1-983).
T1 chain: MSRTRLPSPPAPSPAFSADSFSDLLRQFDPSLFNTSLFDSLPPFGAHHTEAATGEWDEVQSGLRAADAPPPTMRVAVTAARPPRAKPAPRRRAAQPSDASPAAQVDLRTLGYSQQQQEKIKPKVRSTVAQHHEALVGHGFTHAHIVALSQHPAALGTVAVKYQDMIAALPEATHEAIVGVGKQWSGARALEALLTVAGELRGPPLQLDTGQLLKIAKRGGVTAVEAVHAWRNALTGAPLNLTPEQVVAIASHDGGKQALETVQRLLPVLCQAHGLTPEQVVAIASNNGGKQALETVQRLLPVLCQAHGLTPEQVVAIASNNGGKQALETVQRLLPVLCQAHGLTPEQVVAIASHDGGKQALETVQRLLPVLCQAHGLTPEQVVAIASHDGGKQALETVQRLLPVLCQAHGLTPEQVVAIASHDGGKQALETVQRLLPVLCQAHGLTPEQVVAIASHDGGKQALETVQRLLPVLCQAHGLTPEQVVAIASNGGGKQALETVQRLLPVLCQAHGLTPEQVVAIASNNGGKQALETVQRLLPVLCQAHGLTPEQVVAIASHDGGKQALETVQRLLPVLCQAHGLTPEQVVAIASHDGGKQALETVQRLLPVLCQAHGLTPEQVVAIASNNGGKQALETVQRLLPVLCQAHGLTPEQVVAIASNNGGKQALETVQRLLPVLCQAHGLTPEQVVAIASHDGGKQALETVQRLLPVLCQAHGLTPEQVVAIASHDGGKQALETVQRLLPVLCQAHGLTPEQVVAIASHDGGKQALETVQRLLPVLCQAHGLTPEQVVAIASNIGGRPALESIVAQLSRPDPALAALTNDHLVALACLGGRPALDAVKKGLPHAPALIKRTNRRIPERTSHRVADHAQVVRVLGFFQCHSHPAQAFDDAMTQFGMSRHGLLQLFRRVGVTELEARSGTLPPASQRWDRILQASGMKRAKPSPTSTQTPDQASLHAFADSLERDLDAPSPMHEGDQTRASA
The experiment in a line: cell_activity; HEK 293FT, endogenous CACNA1C mRNA. The conditions noted are these: tags: VP64, 2A-GFP. The procedure: Changes in mRNA are measured using qRT-PCR as described previously. VP64, VP64 transcription activation domain. All results are collected from three independent experiments in HEK 293FT cells. Error bars indicate s.e.m.; n=3. FIG. 19(b) discloses SEQ ID NOS 63 and 62, respectively, in order of appearance.
Using qRT-PCR, the performance of NN, NK, NH, and HN for targeting endogenous genomic sequences was further compared. The ability of NN-, NK-, NH-, and HN-TALEs to activate CACNA1C transcription by targeting the two endogenous target sites was tested (FIG. 19b). […] Both TALE 1-NH and TALE2-NH were able to achieve similar levels of transcriptional activation as TALE1-NN and TALE2-NN (˜5 and ˜3 folds of activation for targets 1 and 2, respectively) and twice more than TALE-NK and TALE2-NK (FIG. 19b). […] On the other hand, based on all the results from specificity and endogenous activity tests, the RVD NH seems to be a more suitable substitute for NN than NK when higher targeting specificity is desired, as it also provides higher levels of biological activity. Further testing using additional endogenous genomic targets helps validate the broad utility of NH as a highly specific G-targeting RVD.
For the endogenous gene transcriptional level assay to test the biological activities of TALE activators and TALE repressors, HEK 293FT cells were seeded into 24-well plates. […]

The target of series [2] is T2, TALE1-NH (CACNA1C site 1 activator) (Xanthomonas (engineered), UniProt P14727 SEQ:1-983).
T2 chain: T1 chain with N287H, N321H, N525H, N627H, N661H
The experiment in a line: cell_activity; HEK 293FT, endogenous CACNA1C mRNA; reporter 1.9x that of NK. The conditions noted are these: tags: VP64, 2A-GFP.

B1: CACNA1C site 1 (dsDNA)
DNA 1: TCGGCCCCTGCCGGCCCA
DNA 2: TGGGCCGGCAGGGGCCGA
For B1, the activity in series [1] and in series [2] was about 5 fold activation each time.
